What was measured:
Details in all cases: protein: recombinant; chain copies: 2; single-stranded
[1] = molecular target: T1, TLR7 WT (mmTLR7) (Macaca mulatta, UniProt B3Y653 27-839); test: SPR; mean computed from runs 0.9±0.3, 2±0.5, 1.4±0.6; SPR with recombinant TLR7/TLR8; buffer, pH and temperature not in the material
T1 sequence: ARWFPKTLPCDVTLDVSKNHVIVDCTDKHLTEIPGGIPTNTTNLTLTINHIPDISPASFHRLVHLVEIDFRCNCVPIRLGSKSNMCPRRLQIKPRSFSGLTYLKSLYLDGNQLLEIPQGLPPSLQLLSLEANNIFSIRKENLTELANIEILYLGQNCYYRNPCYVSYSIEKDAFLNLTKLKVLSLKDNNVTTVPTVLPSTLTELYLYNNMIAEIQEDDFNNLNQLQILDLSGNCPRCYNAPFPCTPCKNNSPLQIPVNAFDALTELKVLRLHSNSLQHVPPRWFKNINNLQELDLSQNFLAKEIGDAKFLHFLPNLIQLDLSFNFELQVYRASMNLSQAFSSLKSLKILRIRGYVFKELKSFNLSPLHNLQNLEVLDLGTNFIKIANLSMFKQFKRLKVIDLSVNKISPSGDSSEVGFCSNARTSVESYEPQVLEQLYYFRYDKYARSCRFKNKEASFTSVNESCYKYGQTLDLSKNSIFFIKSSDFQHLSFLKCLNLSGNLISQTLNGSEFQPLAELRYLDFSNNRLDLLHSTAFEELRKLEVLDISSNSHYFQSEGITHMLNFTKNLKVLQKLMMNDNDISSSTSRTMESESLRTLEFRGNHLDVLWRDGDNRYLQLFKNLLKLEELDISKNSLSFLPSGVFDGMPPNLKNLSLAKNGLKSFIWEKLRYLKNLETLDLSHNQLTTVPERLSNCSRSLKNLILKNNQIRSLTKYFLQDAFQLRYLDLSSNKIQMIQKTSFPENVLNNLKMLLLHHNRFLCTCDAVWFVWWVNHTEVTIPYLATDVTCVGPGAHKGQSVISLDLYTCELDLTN

[2] = molecular target: T2, TLR7 F507L (Macaca mulatta, UniProt B3Y653 27-839, F507L); test: SPR; mean computed from runs 16±2, 18±2, 20±6; SPR with recombinant TLR7/TLR8; buffer, pH and temperature not in the material
T2 sequence: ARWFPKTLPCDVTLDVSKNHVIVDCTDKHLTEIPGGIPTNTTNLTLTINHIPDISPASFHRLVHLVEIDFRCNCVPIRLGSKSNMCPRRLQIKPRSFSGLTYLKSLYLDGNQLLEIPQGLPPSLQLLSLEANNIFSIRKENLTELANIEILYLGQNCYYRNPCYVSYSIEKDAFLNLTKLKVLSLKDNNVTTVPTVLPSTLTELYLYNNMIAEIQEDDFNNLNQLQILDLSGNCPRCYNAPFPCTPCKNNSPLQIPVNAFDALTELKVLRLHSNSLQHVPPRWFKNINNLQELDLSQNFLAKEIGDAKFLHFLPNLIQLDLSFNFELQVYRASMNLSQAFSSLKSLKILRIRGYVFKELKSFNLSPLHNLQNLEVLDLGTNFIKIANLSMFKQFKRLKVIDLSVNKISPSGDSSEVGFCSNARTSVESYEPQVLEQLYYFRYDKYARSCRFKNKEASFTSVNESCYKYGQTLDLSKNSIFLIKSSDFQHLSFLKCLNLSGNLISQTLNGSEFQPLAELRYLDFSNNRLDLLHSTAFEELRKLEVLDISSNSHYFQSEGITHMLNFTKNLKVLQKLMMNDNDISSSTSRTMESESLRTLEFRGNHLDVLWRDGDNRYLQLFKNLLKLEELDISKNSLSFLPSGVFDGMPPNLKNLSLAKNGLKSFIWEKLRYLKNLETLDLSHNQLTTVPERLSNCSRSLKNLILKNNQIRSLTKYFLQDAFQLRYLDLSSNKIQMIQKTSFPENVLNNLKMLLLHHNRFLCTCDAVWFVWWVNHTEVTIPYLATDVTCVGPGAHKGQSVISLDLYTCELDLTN

[3] = molecular target: T3, TLR7 F507S (Macaca mulatta, UniProt B3Y653 27-839, F507S); test: SPR; mean computed from runs 36±1, 46±2, 42±6; SPR with recombinant TLR7/TLR8; buffer, pH and temperature not in the material
T3 sequence: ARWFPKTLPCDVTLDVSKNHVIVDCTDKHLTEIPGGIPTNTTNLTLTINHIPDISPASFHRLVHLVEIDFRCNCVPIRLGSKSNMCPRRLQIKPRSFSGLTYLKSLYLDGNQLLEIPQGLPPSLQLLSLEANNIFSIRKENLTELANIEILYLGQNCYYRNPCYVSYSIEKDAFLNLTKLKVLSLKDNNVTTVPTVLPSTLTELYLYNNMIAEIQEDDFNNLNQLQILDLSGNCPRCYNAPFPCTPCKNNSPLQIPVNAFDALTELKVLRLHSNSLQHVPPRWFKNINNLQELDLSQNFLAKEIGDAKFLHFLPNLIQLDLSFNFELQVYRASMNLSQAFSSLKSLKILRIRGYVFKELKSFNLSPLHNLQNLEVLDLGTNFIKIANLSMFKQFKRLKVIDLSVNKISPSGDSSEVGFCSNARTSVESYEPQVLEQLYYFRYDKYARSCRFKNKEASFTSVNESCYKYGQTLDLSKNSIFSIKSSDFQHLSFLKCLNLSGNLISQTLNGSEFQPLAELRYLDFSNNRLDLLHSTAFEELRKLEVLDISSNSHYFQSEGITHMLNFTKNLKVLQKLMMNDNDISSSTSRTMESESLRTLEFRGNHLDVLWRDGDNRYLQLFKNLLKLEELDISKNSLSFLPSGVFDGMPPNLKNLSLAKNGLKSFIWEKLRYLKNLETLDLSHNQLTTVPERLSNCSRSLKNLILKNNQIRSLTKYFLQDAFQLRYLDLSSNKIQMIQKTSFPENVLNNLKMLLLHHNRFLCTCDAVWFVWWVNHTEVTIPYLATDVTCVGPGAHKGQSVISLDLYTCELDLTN

B1: mGrUrC PS (XNA)
RNA: GUC
modifications: 2'-OMe G1, RNA U2 C3; phosphorothioate linkages
[1]
  Kd: 1.43 µM
[2]
  Kd: 18 µM
[3]
  Kd: 41.3 µM

From publication PMC13043311, “2′-O-Methyl-guanosine RNA fragments antagonize TLR7 and TLR8 to limit autoimmunity”
